The record followed here is patent publication US20240084003A1 (SIMCERE ZAIMING PHARMACEUTICAL, published 2024).

Assay [1] deals with T1, human CD22-ECD-His protein (human, UniProt P20273 20-687).
T1 construct: Made in house in HEK293E; also called hCD22-ECD-His; recombinant human CD22-ECD His protein; not shown: His tag
T1 sequence: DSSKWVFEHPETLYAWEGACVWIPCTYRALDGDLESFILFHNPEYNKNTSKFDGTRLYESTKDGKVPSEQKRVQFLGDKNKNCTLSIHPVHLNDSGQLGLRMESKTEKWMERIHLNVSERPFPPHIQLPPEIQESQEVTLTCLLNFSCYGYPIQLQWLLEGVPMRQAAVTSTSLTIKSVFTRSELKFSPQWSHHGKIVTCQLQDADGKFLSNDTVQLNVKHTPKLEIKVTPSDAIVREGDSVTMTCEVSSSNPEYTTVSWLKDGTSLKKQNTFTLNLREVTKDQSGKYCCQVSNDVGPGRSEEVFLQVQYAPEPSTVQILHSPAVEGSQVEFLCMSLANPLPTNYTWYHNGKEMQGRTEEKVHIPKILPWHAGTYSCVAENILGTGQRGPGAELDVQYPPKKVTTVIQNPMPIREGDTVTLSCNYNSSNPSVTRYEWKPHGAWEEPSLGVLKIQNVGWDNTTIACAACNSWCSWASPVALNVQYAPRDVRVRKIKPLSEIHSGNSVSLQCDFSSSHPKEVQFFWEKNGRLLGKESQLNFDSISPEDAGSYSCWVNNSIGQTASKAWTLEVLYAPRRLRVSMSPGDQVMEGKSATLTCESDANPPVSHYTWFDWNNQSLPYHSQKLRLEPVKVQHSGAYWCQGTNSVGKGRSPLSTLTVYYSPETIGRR
Nature of the assay: ELISA, Ab 100.00 nM. Summed up:
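After overnight 4 °C coating with 2 μg/mL CD22-ECD-His and 2 h BSA blocking, wells received antibody, then HRP conjugate (each 2 h, 37 °C). Signal came from TMB, 30 min at room temperature, acid-stopped.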
Background: An ELISA detects its analyte on a solid surface through an enzyme-linked reagent.

The target of the next assay is T2, human CD22 domain5-7-His (human, UniProt P20273 414-687).
T2 construct: also called hCD22 domain5-7-His; not shown: His tag
T2 sequence: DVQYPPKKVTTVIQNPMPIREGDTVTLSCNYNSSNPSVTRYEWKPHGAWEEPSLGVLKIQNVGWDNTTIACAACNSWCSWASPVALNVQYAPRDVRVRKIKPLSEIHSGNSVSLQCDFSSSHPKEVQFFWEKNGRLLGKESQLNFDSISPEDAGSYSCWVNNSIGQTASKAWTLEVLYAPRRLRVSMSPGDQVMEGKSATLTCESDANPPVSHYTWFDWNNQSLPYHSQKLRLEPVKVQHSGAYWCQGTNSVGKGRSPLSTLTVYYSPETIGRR
Nature of the assay: ELISA, human CD22 domain5-7-His coated.

Assay [2] concerns the target T3, murine CD22 protein (ACROBiosystems, SI2-M52Ha) (murine, UniProt P35329 22-708).
T3 construct: extracellular domain; also called murine CD22-ECD; murine CD22-ECD-His
T3 sequence (looked up): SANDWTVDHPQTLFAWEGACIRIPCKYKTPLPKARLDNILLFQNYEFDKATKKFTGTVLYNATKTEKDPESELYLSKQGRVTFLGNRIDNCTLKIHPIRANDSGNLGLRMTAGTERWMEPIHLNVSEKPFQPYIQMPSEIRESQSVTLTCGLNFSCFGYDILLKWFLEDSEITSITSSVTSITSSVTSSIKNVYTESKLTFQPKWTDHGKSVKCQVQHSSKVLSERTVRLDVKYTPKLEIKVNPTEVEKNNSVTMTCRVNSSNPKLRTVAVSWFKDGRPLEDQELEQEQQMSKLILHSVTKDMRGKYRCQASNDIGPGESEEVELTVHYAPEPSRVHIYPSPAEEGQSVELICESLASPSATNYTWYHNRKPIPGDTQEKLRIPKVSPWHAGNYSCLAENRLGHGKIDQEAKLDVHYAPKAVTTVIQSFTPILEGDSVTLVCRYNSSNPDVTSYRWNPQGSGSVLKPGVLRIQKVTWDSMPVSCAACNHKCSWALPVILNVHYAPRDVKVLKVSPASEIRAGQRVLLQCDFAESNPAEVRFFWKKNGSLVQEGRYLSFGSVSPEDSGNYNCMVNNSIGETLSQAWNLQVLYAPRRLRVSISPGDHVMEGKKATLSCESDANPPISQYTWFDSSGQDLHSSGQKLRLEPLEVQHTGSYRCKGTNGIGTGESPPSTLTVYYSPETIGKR
The experiment in a line: ELISA, murine CD22-ECD-His coated. The gist of the method: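 Read-out is TMB absorbance after a 30 min room-temperature development stopped with 1.0 N HCl. It reflects chimeric antibody bound to plate-coated CD22 (2 μg/mL), detected with an HRP-labelled secondary antibody. Antibody and secondary incubations each ran 2 h at 37° C.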

B1: F1.105.11 (antibody, human IgG1, kappa, V domains shown)
VH: EVQLQQSGPVLVKPGASVKMSCKASGYTFSDYFMNWVKQSHGKSLEWIGIINSYSGGTSYNQKFKGKATLTVDKSSSTAYMELNSLTSEDSAVYYCARWMDYWGQGTSVTVSS
VL: DVQITQSPSYLAASPGETITINCRTSESISKHLAWYQEKPGKTNKLLIYSGSTLQSGIPSRFSGSGSGTDFTLTISSLEPEDFAMYYCQQHNEYPWTFGGGTKLEIKR
notes: Human-murine chimeric IgG1, kappa
The molecule B1 yielded an OD450 in assay [1] of 2.79 OD450. Moreover, the EC50 (read off the curve) (usually the midpoint of the concentration-response curve) with human CD22 domain5-7-His was around 0.1 nM. The binding result in assay [2] was “no binding (tested: 100 nM)”.

B2: F2.55.1 (antibody, human IgG1, lambda, V domains shown)
VH: QVTLKESGPGILQPSQTLSLTCSFSGFSLSTFPLGVGWIRQPSGKGLEWLAHVWWNDDDYYNPALKSRLTISKDTSNTRVFLSVASVDTAETATYYCARLNWDRWYFDVWGTGTTVTVSS
VL: QLVLTQSSSASFSLGASAKLTCTLSSQHSAYTVEWYQQQPLKPPKYVMELKKDGSHSTGDGIPDRFSGSSSGADRYLSISNIQPEDEAIYICGVGDTVKEQFVFGGGTKVTVLG
notes: Human-murine chimeric IgG1, lambda
In turn, B2 displayed an OD450 in assay [1] of 2.08 OD450. Further, the binding result (in the assay with human CD22 domain5-7-His; in assay [2]) was “no binding (tested: 100 nM)” each time.

B3: F1.280.1 (antibody, human IgG1, kappa, V domains shown)
VH: QIQLVQSGPELKKPGETVKISCKASGYTFTTYGMSWVKQTPGKGLTWMGWINTDSGVPTYADDFKRRFAFSLEASATTAYLQINNLKNEDTATYFCARGGPDYWGQGTTLTVSS
VL: DILLTQSPATLSVTPGETVSLSCRASQSIYKNLHWYHQKSHRSPRLLIKYASDSISGIPSRFTGSGSGTNFTLSINSVKPEDEGIYYCLQGYIVPLTFGAGTKLELKR
notes: as for B1
B3 returned an OD450 in assay [1] of 2.46 OD450. The binding result (with human CD22 domain5-7-His; in assay [2]) was “no binding (tested: 100 nM)” each time.

B4: F1.216.2 (antibody, human IgG1, kappa, V domains shown)
VH: QVQLQQSGPEVVRPGASVKISCKASGYAFSSSWMNWMKQRPGKALEWIGRIYPGDGDTNYSGEFKVKATLTADKSSSTAYMQLSSLTSEDSAVYFCAREGSYYSNPWYFDYWGQGTTLTVSS
VL: DVLVTQTPLSLPVSLGDQASISCRSSQSIVQSNGDTYLEWYLQKPGQSPKLLIYKVSNRFSGVPDRFSGSGSGTDFTLKISRVEAEDLGVYYCFQGSHVPFTFGSGTKLEIKR
notes: as for B1
As for B4, the OD450 in assay [1] stood at 2.69 OD450. Moreover, the binding result (in the assay with human CD22 domain5-7-His; in assay [2]) was “no binding (tested: 100 nM)” in each case.

B5: F2.180.16 (antibody, human IgG1, lambda, V domains shown)
VH: EVKLVESGGGLVLPGGSLKISCAASGFTFSDYYMYWIRQTPDKRLEWVAYISNTGYSTFYPDSVKGRFTVSRDNAKNTLYLQMSRLQSEDTAMYYCARHGILYAMDYWGQGTSVTVSS
VL: QPVLTQSSSASFSLGASAKLTCTLSSQYSTYTIGWYQQQPLKPPKYVMELKHDGSRHTGDGIPDRFSGSSSGADRYLSISNIQPEDEATYICGVGDTIKEQFMYVFGGGTKVTVLG
notes: as for B2
B5 displayed an OD450 in assay [1] of 2.61 OD450. Besides, in assay [2], the binding result is “no binding (tested: 100 nM)”.

B6: F1.17.1 (antibody, human IgG1, kappa, V domains shown)
VH: QVQLKESGPGLVAPSQSLSITCTVSGFSLSRYTVHWVRQPPGKGLEWLGMIWGGGSTDYNSALKSRLSISKDNSKSQVFLKMNSLQTDDTAMYYCARPHDFDAGGFAYWGQGTLVTVSA
VL: QIVLTQSPAILSTSPGEKVTMTCSASSRVNYMYWYQQKPGSSPRLLIYDTSNLASGVPVRFSGSGSGTSYSLTISRMEAEDAATYYCQQWTSYPLTFGAGTKLELKR
notes: as for B1
B6 yielded an OD450 in assay [1] of 2.86 OD450. Further, the binding result (with human CD22 domain5-7-His; in assay [2]) was “no binding (tested: 100 nM)” throughout.

B7: F1.200.11 (antibody, human IgG1, kappa, V domains shown)
VH: QNQLVQSGPELKKPGETVKISCKASGYTFTTAGMQWVQKMPGKGFKWIGWINTLSGEPKYAEDFKGRFAFSLETSATTAYLQISNLKNEDTATYFCARAYYSNLYWYFDVWGTGTTVTVSS
VL: DIVMTQSQKFMSTTVGDRVTITCKASQNVVTAVAWYQQKPGQSPKVLIYSASNRYSGVPDRFTGSGSGTDFTLTISNMHSEDLANYFCHQYSSYPFTFGSGTKLEIKR
notes: as for B1
In turn, B7 had an OD450 in assay [1] of 2.34 OD450. Besides, the “EC50 (read off the curve)” value with human CD22 domain5-7-His is around 0.03 nM. The binding result in assay [2] is recorded as “no binding (tested: 100 nM)”.

B8: F1.224.1 (antibody, human IgG1, kappa, V domains shown)
VH: EVLLHQSGPELVKPGASVKISCKASGYTFTDFNMDWVRQRHGQSLEWIGDVNPNNGGTIYNQKFKGKATLTVDKSSSTVYMDLRSLTSDDTAVYYCVRLGTSDYGEAWFISWGQGTVVTVSA
VL: DIVLTQSPASLAVSLGQRATISCRASQSVSTPRYSFMHWYQQKPGQPPKLLIKYASNLESGFPARFTGSGSGTDFTLNIHPVEEEDTAAYYCQQSWAIPWTFGGGTKLEIKR
notes: as for B1
In assay [1], B8 had an OD450 of 3.12 OD450. The binding result (with human CD22 domain5-7-His; in assay [2]) was “no binding (tested: 100 nM)” each time.

B9: HA22-hIgG1 (antibody, V domains shown)
VH: EVQLVESGGGLVKPGGSLKLSCAASGFAFSIYDMSWVRQTPEKCLEWVAYISSGGGTTYYPDTVKGRFTISRDNAKNTLYLQMSSLKSEDTAMYYCARHSGYGTHWGVLFAYWGQGTLVTVSA
VL: DIQMTQTTSSLSASLGDRVTISCRASQDISNYLNWYQQKPDGTVKLLIYYTSILHSGVPSRFSGSGSGTDYSLTISNLEQEDFATYFCQQGNTLPWTFGCGTKLEIKR
In turn, B9 displayed an OD450 in assay [1] of 2.65 OD450. Further, the binding result (with human CD22 domain5-7-His; in assay [2]) was “no binding (tested: 100 nM)” in each case.

B10: F1.120.15 (antibody, human IgG1, kappa, V domains shown)
VH: QVQLQQSGPELVKPGASVKISCKASGNAFSNSWMNWVKQRPGKGLEWIGRVYSEDGDTQYNGKFRDKATLTADRSTSTAYMQLSSLTSEDSAVYFCARWLIYYGTYGAMDYWGQGTSVTVSS
VL: DIQMTQTTSSLSASLGDRVTISCRASQDINNYLNWYHQKPDGTVKLLIYFTSRPYSGVPSRFSGSGSGTDYSLTISNLEQEDIATYFCQQGNTLPWTFGGGTKLEIKR
notes: as for B1
B10 came in with an OD450 in assay [1] of 2.89 OD450. The binding result (with human CD22 domain5-7-His; in assay [2]) was “no binding (tested: 100 nM)” throughout.

B11: F2.205.9 (antibody, human IgG1, lambda, V domains shown)
VH: QVTLKESGPGILQPSQTLSLTCSFSGFSLSTSGMGVGWIRQPSGKGLEWLAHIWWDDDEYYNPALKSRLTISKDTSKNQVFLKIANVDTADTATYYCARISIPYGYYDWFFDVWGTGTTVTVSA
VL: QAVVTQESALTTSPGETVTLTCRSSTGAVTTRNYANWVQEKPDHLFTGLIGGTNNRAPGVPARFSGSLIGDKAALTITGAQTEDEAIYFCALWYSNHFIFGSGTKVTVLG
notes: as for B2
For the molecule B11, the OD450 in assay [1] stood at 2.22 OD450. The binding result (in the assay with human CD22 domain5-7-His; in assay [2]) was “no binding (tested: 100 nM)” in each case.
